The text below walks through data of publication PMC11278340.

The target of series [1] is T1, murine CCL22 (Mus musculus, UniProt O88430 25-92).
T1 sequence: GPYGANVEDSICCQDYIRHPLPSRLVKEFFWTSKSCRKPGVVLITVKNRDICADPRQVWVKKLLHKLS
The experiment in a line: flow cytometry on CCL22 beads. On the technique in general: A flow cytometer gives signals particle by particle.

Series [2] concerns the target T1, murine CCL22. The experiment in a line: SPR. (In SPR one partner is held on a chip, and binding of the other changes the refractive index at the surface.)
For the next series, the target named is T2, murine CCL17 (Mus musculus, UniProt Q9WUZ6 24-93).
T2 sequence: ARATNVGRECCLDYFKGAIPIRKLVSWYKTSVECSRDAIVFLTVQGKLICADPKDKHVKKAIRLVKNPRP
The experiment in a line: ELONA.

The target in a further series is T3, human CCL22 (Homo sapiens, UniProt O00626 25-93).
T3 sequence: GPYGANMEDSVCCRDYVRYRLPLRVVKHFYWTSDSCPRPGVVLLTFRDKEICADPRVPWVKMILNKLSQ
The experiment in a line: ELONA.

The next series concerns the target human CCL17 (Homo sapiens, UniProt Q92583 24-94). The experiment in a line: ELONA.

Sequence of human CCL17 (Q92583 24-94): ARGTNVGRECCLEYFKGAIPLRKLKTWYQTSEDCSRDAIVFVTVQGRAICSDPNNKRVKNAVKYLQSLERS

Regarding TAGGCGAGTGTGGGTGGGTGGGCGTTCTC (ssDNA) [AJ102.29], binding in the series with murine CCL22 [1] was characterised by a dissociation constant (Kd) of 63.6 nM.

B1: AJ102 (ssDNA)
DNA: GCTGTGTGACTCCTGCAATAGGCGAGTGTGGGTGGGTGGGCGTTCTCAGTGGTTCTCAGTAGCAGCTGTATCTTGTCTCC
Take B1: the Kd (in general, a measure of binding affinity in units of concentration) is 10.7 nM with murine CCL22 [2] and 147 nM with murine CCL22 [1]. Further, the binding result with murine CCL17, with human CCL22 and in the series with human CCL17 was “no binding” throughout.

B2: AJ82 (ssDNA)
DNA: GCTGTGTGACTCCTGCAAGCTGTGGAGTCGTCGTTCGGGTTATGGGGGATGGGGTTGAGTGGCAGCTGTATCTTGTCTCC
As for B2, the Kd with murine CCL22 [2] amounted to 24.8 nM; with murine CCL22 [1], 146 nM. Besides, the binding result with murine CCL17, in the series with human CCL22 and in the series with human CCL17 was “no binding” each time.
